Test results taken from the nanobody polyreactivity screen of Harvey et al. (2022).

assay: yeast display, Sf9 membrane polyspecificity reagent, FACS + sequencing; frameworks hold sequencing errors
Procedure, shortened: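 In a synthetic yeast display library (Saccharomyces cerevisiae BJ5465), nanobody expression was induced with galactose for 36–48 hours. FACS gates were set low and high (top ~1%) using anti-HA fluorescence for expression and streptavidin fluorescence for binding of the Sf9 membrane reagent. Each polyreactivity label is drawn from the gate of origin.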

Row | Sequence | polyreactivity (PSR sort gate)
1 | QVQLVESGGGLVQAGGSLRLSCAASGSTFAYYVMGWYRQAPGKERELVAAITSSGGRTYYADSVKGRFTISRDNAKNTVYLQMNSQKPEDTAVYYCAKVSQRRVDNSDYDYWGQGTQVTVSS | high polyreactivity
2 | QVQLVESGGGLVQAGGSLRLSCAASGSTFCDYAMGWYRQAPGKERELVAAISSGGSTNYADSVKGRFTISRDNAKNTVYLQMNSLKPEDTAVYYCAVGYGGYYYWGQGTQVTVSS | high polyreactivity
3 | QVQLVESGGGLVQAGGSLRLSCAASGSTFCGYAMGWSRQAPGKEREFVATISISGGSTYYADSVKGRFTISRDNAKNTVYLQMNSLKPEDTAVYYCNADYYFSWGSIEDYWGQGTQVTVSS | low polyreactivity
4 | QVQLVESGGGLVQAGGSLRLSCAASGSTFCRNTMGWYRQAPGKERELVAAINRSASNTYYADSVKGRFTISRDNAKNTVYLQMNSLKQEDPAVYYCSTYSRIFKWEYYYWGQGTQGTVSS | high polyreactivity
5 | QVQLVESGGGLVQAGGSLRLSCAASGSTFDANAMGWYRQAPGKERELVAAISYSDGTTYYADSVKGRFTISRDNAKNTVYLQMNSLKPEDTAVYYCAAELFTYDGEEDYWGQGTQVTVSS | high polyreactivity
6 | QVQLVESGGGLVQAGGSLRLSCAASGSTFDAYAMGWYRQAPGKERELVAAITWSGGSTYYADSVKGRFTISRDNAKTTVYLQMNSLKPEDTAVYYCAAYYLIFYFEFDYWGQGTQVTVYS | low polyreactivity
7 | QVQLVESGGGLVQAGGSLRLSCAASGSTFDDNVMGWYRQAPGKERELVASSTSGGGTNYADSVKGRFTISRDNAKNTVYLQMKSLKPEDTAVYYCAARTQGRRLDYGYWGQGTQVTVSS | low polyreactivity
8 | QVQLVESGGGLVQAGGSLRLSCAASGSTFDDYAMGWYRQATGIERELVAAINNGGSTTYADSVKGRFTISRDNAKNTVYLQMNSLKPEDTAVYYCAKDSGAWEYDYWGQGTQVTVSS | low polyreactivity
9 | QVQLVESGGGLVQAGGSLRLSCAASGSTFDFNAMGWYRQAPRKERELVASISWDTGGTYADSVKGRFTISRDNAKNSFYLQMNSLKTEDTAVYFCAARPDYFIFDYWGQGTQVTVSS | low polyreactivity
10 | QVQLVESGGGLVQAGGSLRLSCAASGSTFDGNAMGWYRQAPGKERELVAAITSGGSTNYADSVKGRFTISRDNAKNTDYLQMNSLKPEDTAVYYCAADTVSFSILYDYWGQGTQVTVSS | low polyreactivity
11 | QVQLVESGGGLVQAGGSLRLSCAASGSTFDGNAMGWYRQAPGKERELVAAITYTTSSTYYADSVKGRFTISRDNAKNTVYLQMNSLKPEDTAVYYCAADASYLPYPLPGTEYEYWGQGTQVTVSS | low polyreactivity
12 | QVQLVESGGGLVQAGGSLRLSCAASGSTFDGYAMGWYRQAPGKERELVAAISSSGTSTYYADSVKGRFTISRDNAKNTVYLQMNSLKPEDTAVYYCAGKGATQSWAGDYWGQGTQVTVSS | low polyreactivity
13 | QVQLVESGGGLVQAGGSLRLSCAASGSTFDGYAMGWYRQAPGKERELVAAITVSVGSTYYADSVKGRFTISRDNAKNTVYLQMNSLIPEDTAVYYCAADYDYHYRYYYWGQGTQVTVSS | low polyreactivity
14 | QVQLVESGGGLVQAGGSLRLSCAASGSTFDGYAMGWYRQAPGKERELVASISWDDVRTYYADSVKGRFTISRDNAKNTVYLQMNSLKPEDTAVYDCAKGDIEYFWSRIYGYWGQGTQVTVSS | low polyreactivity
15 | QVQLVESGGGLVQAGGSLRLSCAASGSTFDGYVMGWYRQAPGKEREFVAAISWSGGSTYYADSVKGRFTISRDNAKYTVYLQMNRLKREDTAVYYCAARVRRQHGYWGQGTQVTVST | high polyreactivity
16 | QVQLVESGGGLVQAGGSLRLSCAASGSTFDHYAMGWYRQAPGKERELVASITLSGGSTYYADSVKGRFTISRDNAKNTVYLQMNSLKPEDTAVYYCNVDYPFYQYGYYYNYNYWGQGTQVTVSS | low polyreactivity
17 | QVQLVESGGGLVQAGGSLRLSCAASGSTFDIYAMGWYRQAPGKERELVAAISNSGDTYYADSVKGRFTISRDNAKNTVYLQMNSLKPEDTAVYYCNADFHDWFDYWGQGTQVTVSS | high polyreactivity
18 | QVQLVESGGGLVQAGGSLRLSCAASGSTFDIYVMGWYRQAPGKEREFVAAITTTTGRTNYADSVKGRFTISRDNAKNTVYLQMNSLKPEDTAVYYCAAYVTWGKLWYGYWGQGTQVTVSS | high polyreactivity
19 | QVQLVESGGGLVQAGGSLRLSCAASGSTFDIYVMGWYRQAPGKERELVAAISRVGNTSYADSVKGRFTISRDNAKNTVYLQMNSLNPEDTAVYYCAADAPSWYDRQYDYWGQGNQVTVSS | low polyreactivity
20 | QVQLVESGGGLVQAGGSLRLSCAASGSTFDKYAMGWYRQAPGKERELVAAITWGGGSTYYADSVKGRFTISRDNAKNTVYLQMNSLKPEDTAVYYCAAEQGSSVLYDSWGQGTQVTVSS | low polyreactivity
21 | QVQLVESGGGLVQAGGSLRLSCAASGSTFDKYAMGWYRQAPRKERELVAAITWGGGSTYYADSVKGRITISRDNAKNTVYLPMNSLKPEDTAVYYCAAEQRSSVLYDSWGQGTQVTVSS | low polyreactivity

Row | Sequence | polyreactivity (PSR sort gate)
22 | QVQLVESGGGLVQAGGSLRLSCAASGSTFDKYSMGWYRQAPGKERELVAAITWGGGSTYYADSVKGRFTISRDNAKNTVYLQMNSLKPEDTAVYYCAAEQGSSVLYDSWGQGTQVTVSS | low polyreactivity
23 | QVQLVESGGGLVQAGGSLRLSCAASGSTFDLYAMGWYRPAPGKERELVAAITSSGGRTYYADSVKGRFTISRDNAKNTVYLQMNSLKPEDTAVYYCAATSSGGYYDGYNYWGQGTQVTVSS | high polyreactivity
24 | QVQLVESGGGLVQAGGSLRLSCAASGSTFDNYAMGWYRQAPGKERELVAAINSRGGRTYYADSVKGRFTISRDNAKNTVYLQMNSLKPEDTAVYYCAAVGATHRFDYWGQGTQVTVSS | high polyreactivity
25 | QVQLVESGGGLVQAGGSLRLSCAASGSTFDPNDMGWYRPAPGKERQLVASITSRGGSTYYADSVKGRFTISRDNAKNTVYLQMNSLKPEDTAVYYCAAVGGATYSWNGYSWYPWHNYWGQGTQVTVSS | low polyreactivity
26 | QVQLVESGGGLVQAGGSLRLSCAASGSTFDPYAMGWSRQAPGKEREMVAAISTSVGGTYYADSVKGRFTISRDYAKNTVNLQMNSLKPEDTAVYYCAVDYSDVQAYTSNEEDYWGQGTQVTVSS | low polyreactivity
27 | QVQLVESGGGLVQAGGSLRLSCAASGSTFDQNVMGWYRQAPGKERELVATINFSGDSTYYADSVKGRFTISRDNAKNTVYLQMNSLKPEDTAVYYCAVDWGEYIDTSVKRDISYYWGQGTQVTVSS | low polyreactivity
28 | QVQLVESGGGLVQAGGSLRLSCAASGSTFDRNVMGWYRQAPGKERELVAAISRVSSTNYADSVKGRFTFSRDNAKNTVYLLMNSLKPEDTAVYYCAADRAGSIMNYWGQGTQVTVSS | low polyreactivity
29 | QVQLVESGGGLVQAGGSLRLSCAASGSTFDRYTLGWYRQAPGKERELVAGISNSGGSTYYADSVKGRFTISRDNAKNTVYLQMNSLKPEDTAVYYCAAAYSIRRILYYYWGQGTHVTVSS | high polyreactivity
30 | QVQLVESGGGLVQAGGSLRLSCAASGSTFDSNGMGWYRQAPGKERELVADITYSDGRTYADSVKGRFTISRDNAKNTVYLQMNSLKPEDTAVYYCAVSDSVYAGFTSYDYWGQGTQVTVSS | low polyreactivity
31 | QVQLVESGGGLVQAGGSLRLSCAASGSTFDSNTMRWYRQAPGKETELVAAITVSGGSTHYADSVKGRFTISRDNAKNTVYLQMNSLKPEDTAVYYCNRRSYGYGAFSGYDYWGQGTQVTVSS | low polyreactivity
32 | QVQLVESGGGLVQAGGSLRLSCAASGSTFDSNVMGWYRQAPGKERELVAAIDLSGGITYYADSVKGRFTISRDNAKNTVYLQMNSLKPEDTAVYYCATDEGYRYPHVDLTEVYYWGQGTQVTVSS | low polyreactivity
33 | QVQLVESGGGLVQAGGSLRLSCAASGSTFDSYAMGWYRQAPGKEGELVAAITGGGDTNYADSVKGRFTISRDNAKNTVYLQMNSLKPEDTAVYYCAAYQRRGNYQMDYWGQGTQVTVSS | low polyreactivity
34 | QVQLVESGGGLVQAGGSLRLSCAASGSTFDTNAMGWYRQAPGKDRELVAAITSGGNTYADSVKGRFTISRDNAKNTVYLQMNSLKPEDTAVYYCAAEDVYTGWYDYWGQGTQVTVSS | low polyreactivity
35 | QVQLVESGGGLVQAGGSLRLSCAASGSTFDTNAMGWYRQAPGKERELVATITSIGGSTYADSVKGRFTISRDNAKNTVYLQMNSLKPEDNAVYYCATDYVEIDYYYDYWGQGTQVTVSS | low polyreactivity
36 | QVQLVESGGGLVQAGGSLRLSCAASGSTFDTYAMGWYRPAPGKERELVAGMTRRGGRTYYADSVKGRFTISRDTAKNTVYLQKNSLKPEDTADYYCNAVPQRPVGKLDHWGQGTQVTVSS | high polyreactivity
37 | QVQLVESGGGLVQAGGSLRLSCAASGSTFDVNTMGWYRQAPGKERELVAAIRLRGGSTYYADSVKGRFTISRDNAKNTVYLQMYSLKPEDTEVSYCAADYTLIYDYWGQGTQVTVSS | low polyreactivity
38 | QVQLVESGGGLVQAGGSLRLSCAASGSTFDVYAMGWYIQAPGKERELVASIRWSGGSTNYADSVKGRFTISRDNAKNTVYLQMNSLKPEDTAVYYCNADVGTGFRPGQYDYWGQGTQVTLSS | low polyreactivity
39 | QVQLVESGGGLVQAGGSLRLSCAASGSTFDVYDMGWYRQAPGKERELVASISWDGDRTYYADSVKGRFTISRDNAKNTVYLQMNSLKPEDTAVYYCAVDSASDTIYDYWGQGTQVTVSS | low polyreactivity
40 | QVQLVESGGGLVQAGGSLRLSCAASGSTFDWYAMGWYRQAPGKEREFVAAIDQDEDSTYYADSVKGRFTISRDNAKNTVYLQMNSLKPEVTAVYYCAADHAWYSLFDYWGQGTQVTVSS | low polyreactivity
41 | QVQLVESGGGLVQAGGSLRLSCAASGSTFDWYTMGWYRQATGKERELVADITSGGSTYYADSVKGRFTISRDNAKNTVYLQMNSLKPEDTAAYYCNAYLYTWRWAFDYWGQGTQVTVSS | high polyreactivity
